From publication PMC3315321

Molecular target: T1, RIG-I (human, UniProt O95786 1-925)
T1 sequence: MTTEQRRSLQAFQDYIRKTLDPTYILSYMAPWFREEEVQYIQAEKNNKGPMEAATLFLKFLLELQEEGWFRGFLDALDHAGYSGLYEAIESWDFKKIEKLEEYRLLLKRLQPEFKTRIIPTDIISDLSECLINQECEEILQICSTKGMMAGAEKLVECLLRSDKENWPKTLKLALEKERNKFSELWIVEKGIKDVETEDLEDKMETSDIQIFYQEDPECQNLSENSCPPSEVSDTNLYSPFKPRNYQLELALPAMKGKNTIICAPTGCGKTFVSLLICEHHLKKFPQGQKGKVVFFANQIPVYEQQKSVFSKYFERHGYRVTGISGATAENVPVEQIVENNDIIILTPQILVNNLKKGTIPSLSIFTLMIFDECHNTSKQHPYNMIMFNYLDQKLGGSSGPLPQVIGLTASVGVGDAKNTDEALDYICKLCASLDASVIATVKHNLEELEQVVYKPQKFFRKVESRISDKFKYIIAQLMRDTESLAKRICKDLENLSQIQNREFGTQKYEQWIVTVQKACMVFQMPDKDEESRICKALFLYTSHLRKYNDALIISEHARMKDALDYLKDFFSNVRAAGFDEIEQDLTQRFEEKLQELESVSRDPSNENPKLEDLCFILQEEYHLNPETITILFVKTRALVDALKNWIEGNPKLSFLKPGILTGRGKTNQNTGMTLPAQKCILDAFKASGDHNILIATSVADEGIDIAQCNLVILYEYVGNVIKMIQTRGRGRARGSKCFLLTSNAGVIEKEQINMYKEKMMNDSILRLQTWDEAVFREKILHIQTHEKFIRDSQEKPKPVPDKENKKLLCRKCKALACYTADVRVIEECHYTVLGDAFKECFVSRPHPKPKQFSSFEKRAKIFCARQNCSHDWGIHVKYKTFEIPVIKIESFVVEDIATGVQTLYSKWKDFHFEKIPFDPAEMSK
Experiment: filter binding

B1: CL9 (AP-treated) (XNA)
RNA: GGGAGAGCGGAAGCGUGCUGGGCCACCAUCCGUAACUAGCUAAUACUUGUUAUCUUUUUAUUUUCAUAACCCAGAGGUCGAUGGAUCCCCCC
modifications: 2'-F U and 2'-F C (all)
  Kd: 37.2 nM
